Numbering of substitutions follows the chain as printed. Read-outs that look alike come from different tables or passages of the source.
How the values were obtained:
[1] = molecular target: T1, human VISTA expressed on cells (human, UniProt Q9H7M9 33-311); experiment: flow cytometry, FITC anti-Fc detection; HEK293 VISTA O/E against HEK293
T1 construct: also called HEK293 VISTA O/E; HEK293T or HEK293-6E cells overexpressing human VISTA
Description: (§1) The cells were washed thrice with FACS buffer (PBS with 5 mM EDTA and 0.5% BSA) and resuspended in FITC-conjugated anti-FC antibody (Invitrogen, USA) for 40 min at 2-8° C. Cells were washed again and resuspended in 200 μL of FACS flow buffer (PBS with 5 mM EDTA) for flow cytometric analysis using MACSQuant 10 (Miltenyi Biotec, Germany). After acquisition, all raw data were analyzed using Flowlogic software. Cells were gated using forward and side scatter profile and Median of Fluorescence Intensity (MFI) value was determined for native and overexpressing cell populations.

[2] = molecular target: T1, human VISTA expressed on cells; experiment: flow cytometry, FITC anti-Fc detection; HEK293 cells overexpressing human VISTA against HEK293 cells without VISTA
Description: as §1

[3] = molecular target: T2, recombinant human VISTA (His-tagged) (human, UniProt Q9H7M9 33-194); experiment: competition ELISA: VSIG-3 coated, His-tagged VISTA added with the antibody, anti-His-HRP; blocked ligand VSIG-3
T2 construct: bought soluble protein (Sino Biological); also called hVISTA; human VISTA polypeptide
Description: Briefly, 96-well plates (Nunc, Denmark) were coated with 1 μg/ml of untagged or Fc-tagged VSIG-3 (R&D Systems, USA) in 1×PBS for 16 h at 4° C. […] Plates were subsequently washed three times with TBS-T and incubated with an HRP-conjugated anti-his secondary antibody for 1 h at room temperature. After washing, plates were developed with colorimetric detection substrate Turbo-TMB (Pierce, USA).

[4] = molecular target: T3, recombinant mouse VISTA (His-tagged) (mouse, UniProt Q9D659 33-191); experiment: ELISA, target protein coated, absorbance 450 nm
T3 construct: also called murine VISTA; mVISTA
T3 sequence (looked up): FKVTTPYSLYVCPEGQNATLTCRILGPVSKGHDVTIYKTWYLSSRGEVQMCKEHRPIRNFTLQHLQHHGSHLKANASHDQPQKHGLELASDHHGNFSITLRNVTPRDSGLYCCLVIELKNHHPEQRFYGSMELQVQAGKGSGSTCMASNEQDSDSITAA

[5] = molecular target: T2, recombinant human VISTA (His-tagged); experiment: ELISA, target protein coated, absorbance 450 nm
human PD-L1 [6] = molecular target: T4, human PD-L1 (human, UniProt Q9NZQ7 19-239); experiment: ELISA, target protein coated, absorbance 450 nm
T4 construct: captured through a His tag in the BLI experiments; also called hPD-L1; B7H1/PDL-1

[7] = molecular target: T3, recombinant mouse VISTA (His-tagged); experiment: ELISA, target protein coated, absorbance 450 nm; remark: listed apart in the source
[8] = molecular target: T2, recombinant human VISTA (His-tagged); experiment: ELISA, target protein coated, absorbance 450 nm; remark: listed apart in the source
[9] = molecular target: T2, recombinant human VISTA (His-tagged); experiment: ELISA, plate coated with human VISTA; unit nM from the legend paragraph 699
[10] = molecular target: T3, recombinant mouse VISTA (His-tagged); experiment: ELISA, plate coated with mouse VISTA; unit nM from the legend paragraph 699
[11] = molecular target: T2, recombinant human VISTA (His-tagged); experiment: ELISA, plate coated with human VISTA; unit nM from the legend paragraph 697
[12] = molecular target: T2, recombinant human VISTA (His-tagged); experiment: BLI (Octet), 1:1 global fit, His-tagged human VISTA captured
[13] = molecular target: T3, recombinant mouse VISTA (His-tagged); experiment: ELISA, plate coated with mouse VISTA; unit nM from the legend paragraph 698
[14] = molecular target: T3, recombinant mouse VISTA (His-tagged); experiment: BLI (Octet), 1:1 global fit, mouse VISTA captured
Description: All measurements were performed at 25° C. with agitation at 1000 rpm. […] Sensograms were referenced for buffer effects and then fitted using the Octet QK384 user software (Pall ForteBio, USA).

human PD-L1 [15] = molecular target: T4, human PD-L1; experiment: BLI (Octet), His-tagged human PD-L1 on anti-Penta-HIS biosensor, antibody 500-15.6 nM
Description: (§2) Finally, the biosensors were incubated for 120 sec in PBS pH 7.2 to obtain the dissociation curves. Kinetic and affinity constants were calculated by global fitting of the association and dissociation data to a 1:1 binding model.

[16] = molecular target: T2, recombinant human VISTA (His-tagged); experiment: BLI (Octet), 1:1 global fit, human VISTA captured
Description: as §2

[17] = molecular target: T2, recombinant human VISTA (His-tagged); experiment: ELISA, plate coated with human VISTA; unit nM from the legend paragraph 698
[18] = molecular target: T3, recombinant mouse VISTA (His-tagged); experiment: ELISA, plate coated with mouse VISTA; unit nM from the legend paragraph 697
[19] = molecular target: T3, recombinant mouse VISTA (His-tagged); experiment: BLI (Octet), 1:1 global fit, His-tagged mouse VISTA captured
[20] = molecular target: T3, recombinant mouse VISTA (His-tagged); experiment: as above; remark: listed apart in the source

T4 sequence (Q9NZQ7 19-239 limits assumed): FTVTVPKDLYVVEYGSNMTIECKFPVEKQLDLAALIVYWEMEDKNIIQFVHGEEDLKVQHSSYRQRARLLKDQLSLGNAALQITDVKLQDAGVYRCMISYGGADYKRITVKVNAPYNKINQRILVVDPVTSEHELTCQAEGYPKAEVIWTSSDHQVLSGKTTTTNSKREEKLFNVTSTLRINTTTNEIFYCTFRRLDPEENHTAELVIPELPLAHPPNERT

B1: anti-VISTA clone 2M1-B12 IgG1 (antibody)
heavy: not shown
light: DIQMMQSPASLSASVGETVAITCGASENIYGALNWYQRKQGKSPQLLIYGATNLADGMSSRFSGSGSGRQYSLKISSLHPDDVATYYCQNVLSTPYTFGGGTKLEIKRTVAAPSVFIFPPSDEQLKSGTASVVCLLNNFYPREAKVQWKVDNALQSGNSQESVTEQDSKDSTYSLSSTLTLSKADYEKHKVYACEVTHQGLSSPVTKSFNRGEC
**Q.** Does B1 bind [1]?
**A.** binds

B2: anti-VISTA clone 2M1-D2 IgG1 (antibody)
heavy: not shown
light: B1 light with Q3V, M5T
**Q.** Does B2 bind [1]?
**A.** binds

B3: anti-VISTA clone 4M2-D5 IgG1 (antibody, V domains shown)
VH: QVQLQQSGAELARPGASVRMSCKASGYTFTSYTMNWVKQRPGQGLEWIGFINPDSDYTTYDQKFKDKATLTADSSSSTAYMQLSSLTYDDSAVYYCTRHSYGNYGDYWGQGTTLTVSS
VL: DIVLTQSPKFLLVSAGDRVTITCKASQSVTNDVAWYQQKPGQSPKLLIYYASSRYTGVPDRFTGSGFGTDFTFTINTVQAEDLAVYFCQQDYSSPYTFGGGTKLEIKR
**Q.** Does B3 bind [2]?
**A.** binds

B4: anti-VISTA clone 4M2-A8 IgG1 (antibody, V domains shown)
VH: QVQLQQSGADLARPGASVKMSCKASGYTFIDYTVHWVKQRPGQGLEWIGFINPSNDYTSYNQKFKDKASLTADTSSTTAYMQLSSLTSDDSAVYYCARHSYGNYGDYWGQGTTLTVSS
VL: B3 VL with L4M, S7A, D32G, S53N, N76S
**Q.** Does B4 bind [1]?
**A.** binds

B5: anti-VISTA clone 5M1-A11 IgG1 (antibody, V domains shown)
VH: QVTLKVSGPGILQPSQTLSLTCSFSGFSLSTSGMGVSWIRQPSGKGLEWLAHIYWDDDKRYNPSLKSRLTISKDSSSNQVFLKITSVDTADTATYYCARRLDGYNDPYYFDYWGQGTTLTVSS
VL: DVVMTQTPALMSASPGEKVTMTCSASSSVSYMYWYQQKPRSSPKPWIYLTSNLASGVPARFSGSGSGTSYSLTISSMEAEDAATYYCQQWNSNPYTFGGGTKLEIKR
**Q.** What does the source list for B5?
**A.** binding result [3]: binds; binding result [1]: binds

B6: anti-VISTA clone 4M2-C9 IgG1 (antibody, V domains shown)
VH: B5 VH with V6E, S7C
VL: DIVMTQSPSSLSASLGDTVTITCHASQNVNVWLSWYQQKPGNIPKLLIYKASNLHAGVPSRFSGSGSGTGFTLTISSLQPEDIATYYCQQGQSYPLTFGGGTKLEIKR
**Q.** Does B6 bind [1]?
**A.** binds

B7: anti-VISTA clone 13D5-1 IgG1 (antibody, V domains shown)
VH: QVQLQQSGAELVRPGTSVKISCKASGYTFTNYWLGWVKQRPGHGLEWIGDIYPGGGYTNYNEKFKGKATLTADTSSSTAYMQLSSLTSEDSAVYFCVRSGYYYGSSWYFDVWGAGTTVTVSS
VL: DVLMTQTPLSLPVSLGDQASISCRSSQSIVHSSGNTYLEWYLQKPDQSPKLLIYKVSNRFSGVPDRFSGSGSGTDFTLKISRVEAEDLGVYYCFQGSHVPPTFGGGTKLEIKR
**Q.** Does B7 bind [4]?
**A.** binds

**Q.** Does B7 bind [5]?
**A.** binds

**Q.** Does B7 bind (human PD-L1 [6])?
**A.** binds

B8: anti-VISTA clone 13D5-13 IgG1 (antibody, V domains shown)
VH: B7 VH with T74I, V93D, S99G
VL: B7 VL with I29T, S33I, D46G, G71E
**Q.** Which results are given for B8?
**A.** binding result [7]: binds; binding result [8]: binds

B9: anti-VISTA clone 4M2-D9 IgG1 (antibody, V domains shown)
VH: EVQLQESGPGLVKPSQSLSLTCTVTGYSITSDYAWNWIRQFPGNRLEWMGFISYSGFTTYSPSLESRISITRDTSKNQFFLQLISVTTEDTATYYCARNHYGGSYWYFDVWGAGTSVTVSS
VL: DIVMTQSPGSLAVSLGQRATISCRASESVEYYGTSLMQWYLQKPGQPPKLLIYAASNVESGVPDRFRGSGSGTDFSLNIHPVEEDDIAMYFCQQSRKVPWTFGGGTKLEIKR
**Q.** Does B9 bind [1]?
**A.** binds

B10: anti-VISTA clone V4-C1 IgG1 (antibody, V domains shown)
VH: QVQLQESGPGLVKPSDTLSLTCTVSGYSITSDYAWNWIRQTPGKGLEWIGYITYSGYISYNPSLRSRVTISRDTSKNQFSLKLSSVTAADTAVYSCARALYYPWYFDVWGTGTTVTVSS
VL: EIVITQSPATLSLSPGERATLSCRASSSVGYIHWYQQKPGQAPRPLIYATSNRATGIPARFSGSGSGTDNTLTISSLEPEDSAVYYCQQWSSYPPITFGGGTKLEVKR
**Q.** What does the source list for B10?
**A.** EC50 [9]: 65 pM; EC50 [10]: 2440 pM; EC50 [11]: 2.4 pM; Kd [12]: < 1 pM; koff [12]: < 1e-07 s⁻¹; kon [12]: 343000 M⁻¹ s⁻¹; EC50 [13]: 1600 pM; Kd [14]: 58500 pM; koff [14]: 0.0162 s⁻¹; kon [14]: 277000 M⁻¹ s⁻¹; binding result (human PD-L1 [15]): no binding (tested: 500 nM); Kd [16]: < 1 pM; koff [16]: < 1e-07 s⁻¹; kon [16]: 391000 M⁻¹ s⁻¹; EC50 [17]: 42 pM; EC50 [18]: 3100 pM; Kd [19]: 60700 pM; koff [19]: 0.0147 s⁻¹; kon [19]: 243000 M⁻¹ s⁻¹; Kd [20]: 66700 pM; koff [20]: 0.022 s⁻¹; kon [20]: 330000 M⁻¹ s⁻¹

B11: anti-VISTA clone V4-C9 IgG1 (antibody, V domains shown)
VH: B10 VH with I58V
VL: B10 VL with I4L
**Q.** What does the source list for B11?
**A.** EC50 [9]: 107 pM; EC50 [10]: 180 pM; EC50 [11]: 31 pM; Kd [12]: < 1 pM; koff [12]: < 1e-07 s⁻¹; kon [12]: 333000 M⁻¹ s⁻¹; EC50 [13]: 44 pM; Kd [14]: 2880 pM; koff [14]: 0.00104 s⁻¹; kon [14]: 361000 M⁻¹ s⁻¹; binding result (human PD-L1 [15]): no binding (tested: 500 nM); Kd [16]: 125 pM; koff [16]: 5.6e-05 s⁻¹; kon [16]: 450000 M⁻¹ s⁻¹; EC50 [17]: 30 pM; EC50 [18]: 110 pM; Kd [19]: 3810 pM; koff [19]: 0.00118 s⁻¹; kon [19]: 311000 M⁻¹ s⁻¹; Kd [20]: 4260 pM; koff [20]: 0.00067 s⁻¹; kon [20]: 157000 M⁻¹ s⁻¹

B12: anti-VISTA clone 1M2-D2 IgG1 (antibody, V domains shown)
VH: EVKVEESGGGLVQPGGSMKLSCAASGFTFSDAWMDWVHQSPEKGLEWVAEIRSKANNHATYYVESVEGRFTISRDDSKSSVFLQVNSLRPEDTGIYYCTRRDGYYFAYWGQGTLVTVSA
VL: DIVLTQSPAIMSASLGEEITLTCSASSSVRDMHWYQQKSGTSPKVLIYNTFNLASGVPSRFSGSGSGTFYSLTISSVEAGDAAAYYCHQWSSYPTFGGGTKLEIKR
**Q.** Does B12 bind [1]?
**A.** binds

Reference: US20250313631A1 (HUMMINGBIRD BIOSCIENCE PTE, published 2025)
